The text below walks through data of publication PMC3045100, “Cell-Penetrating Penta-Peptides (CPP5s): Measurement of Cell Entry and Protein-Transduction Activity” (Pharmaceuticals, 2010).

This assay concerns Tex-loxP-EG cells. The assay can be described thus: Protein transduction: delivery of Cre recombinase read out by GFP expression. In kind it is cell-based, mouse. The note with it: 5 or 10 µM protein, 3 h, GFP measured 48 h after, FACS, three independent experiments. As for the experimental part:
To determine the protein-transduction activity of VPTLK and KLPVM, these peptides were added to the N-terminus of Cre DNA recombinase and the resulting CPP5-Cre fusion proteins were added separately to the culture medium of Tex-loxP-EG cells, which are engineered to express GFP through Cre-dependent excision of a chromosomal lox P site. This method was developed by S. Dowdy’s group to determine the protein-transduction activity of TAT peptide.
First, cells were cultured for 3 h in serum-free medium in the presence of 5 or 10 µM Cre, TAT-Cre, KLPVM-Cre, or VPTLK-Cre. GFP expression was measured 48 h after the incubation with the CPP-Cre proteins. […]
Figure 5 Protein-Transduction activity (PTDs) of VPTLK and KLPVM determined by the delivery of Cre recombinase into cells. a. […] The delivery of Cre into Tex-lox P-EG cells was evaluated by GFP expression as previously reported. GFP expression was analyzed 48 h after the incubation of cells with Cre proteins. b and c. […] Mean GFP fluorescence intensity of Tex-loxP-EG cells incubated with 5 or 10 μM Cre recombinant proteins under serum-free conditions. […]
Tex lox P EG cells were established from thymoma cells of p53-deficient mice, which were genetically engineered to have a lox P site flanking the EGFP gene. […] Expression of GFP was analyzed by fluorescence microscopy and by FACS [11].

B1: Cre: His-tagged recombinant Cre DNA recombinase without TAT or CPP5s (protein, UniProt P06956 1-343, looked up)
Recombinase cre: MSNLLTVHQNLPALPVDATSDEVRKNLMDMFRDRQAFSEHTWKMLLSVCRSWAAWCKLNNRKWFPAEPEDVRDYLLYLQARGLAVKTIQQHLGQLNMLHRRSGLPRPSDSNAVSLVMRRIRKENVDAGERAKQALAFERTDFDQVRSLMENSDRCQDIRNLAFLGIAYNTLLRIAEIARIRVKDISRTDGGRMLIHIGRTKTLVSTAGVEKALSLGVTKLVERWISVSGVADDPNNYLFCRVRKNGVAAPSATSQLSTRALEGIFEATHRLIYGAKDDSGQRYLAWSGHSARVGAARDMARAGVSIPEIMQAGGWTNVNIVMNYIRNLDSETGAMVRLLEDGD
modifications: His tag
notes: His-tagged recombinant Cre DNA recombinase without TAT or CPP5s
On to B1, for which the “GFP expression induced by Cre protein, serum-free medium” value was “did not”.
